Data as given in article doi:10.1101/674218 (bioRxiv, 2019).
Each block holds one binder with its values, some of them ahead of it.

T1: recombinant mouse TREM-1-Fc Chimera (mouse, UniProt Q9JKE2 21-202)
T1 sequence (looked up): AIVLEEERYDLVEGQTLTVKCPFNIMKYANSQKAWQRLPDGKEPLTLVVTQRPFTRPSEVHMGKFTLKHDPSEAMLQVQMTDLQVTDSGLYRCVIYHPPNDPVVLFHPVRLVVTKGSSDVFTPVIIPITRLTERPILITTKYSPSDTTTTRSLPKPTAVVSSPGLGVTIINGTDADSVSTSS

T2: triggering receptor expressed on myeloid cells-1 (TREM-1) on RAW264.7 macrophages (mouse (endogenous in RAW264.7), UniProt Q9JKE2 21-230)
T2 sequence (looked up): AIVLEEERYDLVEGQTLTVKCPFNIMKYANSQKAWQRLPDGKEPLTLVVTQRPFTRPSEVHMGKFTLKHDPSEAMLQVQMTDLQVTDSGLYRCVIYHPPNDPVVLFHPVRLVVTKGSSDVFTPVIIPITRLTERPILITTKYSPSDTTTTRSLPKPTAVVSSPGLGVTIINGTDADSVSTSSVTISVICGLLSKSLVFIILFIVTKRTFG

T3: recombinant murine cold-inducible RNA-binding protein, His-tagged (rmCIRP-his) (mouse), P60824
T3 chain: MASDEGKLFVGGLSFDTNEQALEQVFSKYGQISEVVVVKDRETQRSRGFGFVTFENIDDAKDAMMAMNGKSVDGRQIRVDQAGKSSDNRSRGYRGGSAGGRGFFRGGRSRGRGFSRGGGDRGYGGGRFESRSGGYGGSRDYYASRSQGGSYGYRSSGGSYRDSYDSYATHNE

B1: recombinant murine cold-inducible RNA-binding protein, His-tagged (rmCIRP-his) (natural protein, mouse, UniProt P60824 1-172, looked up)
chain: T3 chain
B2: recombinant mouse TREM-1-Fc Chimera, Q9JKE2 21-202 (Fc fusion)
chain: T1 sequence (looked up)

Tests used:
[1] = molecular target: T1, recombinant mouse TREM-1-Fc Chimera; experiment: SPR
[2] = molecular target: T2, triggering receptor expressed on …; experiment: FRET or BRET
[3] = molecular target: B1; experiment: SPR
[4] = molecular target: T3, recombinant murine cold-inducible …; experiment: SPR; conditions: remark: other sources report otherwise

Kd [1]: 35.2 µM
Binder: RGFFRGG [M3, 7-aa peptide derived from CIRP]

Binder: B1
fold increase in FRET units over the negative control CD11b [2]: ~7 fold

Kd [3]: 48 µM
Binder: LQVTDSGLYRCVIYHPP [LP17, 17 amino acid peptide taken from TREM-1]

Binder: B2
Kd [4]: 0.117 µM
